“And” between values parts separate entries of the source, which are not always exact repeats. Identical values can stand only once. Like-named read-outs stand apart in the source and are kept apart here.
T1: mouse TIGIT antigen (mouse, UniProt P86176 29-148, limits assumed)
T1 construct: construct not described; also called murine TIGIT
T1 sequence (looked up): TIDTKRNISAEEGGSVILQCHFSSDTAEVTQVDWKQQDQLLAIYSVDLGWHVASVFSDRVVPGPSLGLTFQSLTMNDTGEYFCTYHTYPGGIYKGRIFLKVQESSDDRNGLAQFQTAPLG

T2: full-length human TIGIT expressed on CHO-K cell membrane (CHO-K-TIGIT) (human, UniProt Q495A1 22-244)
T2 construct: whole, on cells; also called CHO-TIGIT; membrane TIGIT
T2 sequence (looked up): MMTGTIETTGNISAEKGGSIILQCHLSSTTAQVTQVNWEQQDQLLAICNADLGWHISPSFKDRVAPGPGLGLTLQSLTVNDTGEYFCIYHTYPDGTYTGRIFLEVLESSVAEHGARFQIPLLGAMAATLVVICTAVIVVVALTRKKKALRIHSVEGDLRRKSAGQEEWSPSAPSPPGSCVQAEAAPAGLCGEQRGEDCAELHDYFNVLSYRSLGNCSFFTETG

T3: recombinant human TIGIT (Human TIGIT His, Sino Biological, 10917-H08H) (human, UniProt Q495A1 22-138)
T3 construct: range 1-138; bought; also called hTIGIT
T3 sequence (looked up): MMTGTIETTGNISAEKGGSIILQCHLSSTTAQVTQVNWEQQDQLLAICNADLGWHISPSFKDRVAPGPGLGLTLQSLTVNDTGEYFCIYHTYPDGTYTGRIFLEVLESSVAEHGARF


Experiments:
[1] = target: T1, mouse TIGIT antigen; assay: ELISA, coated mouse TIGIT
Procedure: (§1) The cynomolgus monkey or mouse TIGIT antigen of was coated with the same method as above, the anti-human TIGIT mouse monoclonal antibody was diluted in gradient, and then the anti-mouse Fab secondary antibody was added (Jackson Immuno Research, 515-035-072) for TMB development. ELISA was used to detect the binding of 8 mouse monoclonal antibodies to recombinant cynomolgus monkey TIGIT.

[2] = target: T2, full-length human TIGIT expressed on …; assay: flow cytometry, CHO-TIGIT cells
[3] = target: T3, recombinant human TIGIT (Human TIGIT …); assay: competition ELISA, coated TIGIT-His, CD155-Fc as competitor
Procedure: In order to evaluate the competition between the anti-human TIGIT mouse monoclonal antibody and CD155 (Human CD155 (Fc Tag): Sino Biological, 10109-H02H) for binding to recombinant human TIGIT (Human TIGIT(His), Sino Biological, 10917-H08H), ELISA detection was performed, and the specific steps were as follows:
Primary antibody incubation: the plate was washed twice with PBS (250 μl/well), and patched dry. 6 μg/ml of CD155 was respectively diluted in a binding solution and added into a 96-well dilution plate at 60 μl/well. Then the screened hybridoma antibody was diluted with the binding solution, (the highest concentration was 30 μg/ml), and diluted to 3 times of concentration, and added into the corresponding dilution plate above at 60 μl/well. After mixing well, the sample was added to the coated 96-well ELISA plate at 100 μl/well. The plate was sealed with a sealing film and placed at 37° C. for 1.5 hours.
Secondary antibody incubation: the blocking solution was discarded, the plate was washed with 250 μl PBST for 3 times, and patched dry.

[4] = target: T3, recombinant human TIGIT (Human TIGIT …); assay: ELISA, coated human TIGIT-His
[5] = target: T4, recombinant cynomolgus monkey TIGIT (cynomolgus monkey, UniProt A0A7N9I9V4 89-209); assay: ELISA, coated cynomolgus TIGIT
T4 construct: construct not described; also called cynomolgus TIGIT
Procedure: as §1

[6] = target: T4, recombinant cynomolgus monkey TIGIT; assay: ELISA, recombinant cynomolgus TIGIT coated, anti-mouse Fab secondary antibody, TMB, OD450/655nm
Procedure: as §1

[7] = target: T3, recombinant human TIGIT (Human TIGIT …); assay: ELISA, recombinant human TIGIT (His) coated, anti-human-Fc-AP, OD405/490
Procedure: (§2) Antigen hTIGIT (Human TIGIT (His), Sino Biological, 10917-H08H) was diluted into 1 μg/mL with a NaHCO₃ solution of pH 9.6, 50 μl per well was added to a 96-well ELISA plate, and placed overnight in refrigerator at 4° C.
(§3) In order to determine whether the humanized TIGIT monoclonal antibody of the present disclosure could bind to the recombinant human TIGIT protein, in vitro testing was performed. Murine antibodies and Tiragolumab (Tira) were used as positive controls. The experimental method was the same as in Example 3.1.

[8] = target: T3, recombinant human TIGIT (Human TIGIT …); assay: BLI, antibody captured on anti-human Fc probe, TIGIT-His in solution
Procedure: The dissociation constant (Kd) of the human mouse chimeric TIGIT monoclonal antibody was detected by using a GATORS (ProbeLife) detection instrument and an HFC (LOT #2007065 Tray 2), Human antibody Capture probe. The human mouse chimeric TIGIT monoclonal antibody was diluted to 30 nM in a binding buffer (Q buffer [PBS (10 mM PH7.4)+0.02% Tween 20+0.2% BSA]). The recombinant human TIGIT protein was diluted in Q buffer in a 2-fold gradient to different concentrations varying in the range of 40 nM to 10 nM. A kinetic correlation determination was initiated by placing an antibody capture sensor in the continuously diluted antigen solution described above. Octet Data Acquisition software was opened and New Kinetics Experiment-Basic Kinetics mode was selected.

[9] = target: T3, recombinant human TIGIT (Human TIGIT …); assay: as above; remark: listed apart in the source
[10] = target: T3, recombinant human TIGIT (Human TIGIT …); assay: competition ELISA, coated TIGIT-His, CD155-mFC as competitor
Procedure: Antigen TIGIT (Human TIGIT (His), Sino Biological, 10917-H08H) was diluted with pH 9.6 of NaHCO₃ solution into 1 μg/mL, 50 μL per well was added to a 96-well ELISA plate, and placed overnight at 4° C. in a refrigerator. The next day, after washing with PBS twice, plate was blocked with 3% BSA (100 μL per well) by incubating at 37° C. for 1.5 h, and washed 4 times with PBST.

[11] = target: T3, recombinant human TIGIT (Human TIGIT …); assay: competition ELISA, human TIGIT (His) coated, antibody titrated against fixed CD155, bound CD155 detected, OD450/655
[12] = target: T3, recombinant human TIGIT (Human TIGIT …); assay: ELISA, recombinant human TIGIT (His) coated, anti-human-Fc-AP, OD405/490; remark: listed apart in the source
Procedure: as §2, §3

T4 sequence (A0A7N9I9V4 entry or part of it): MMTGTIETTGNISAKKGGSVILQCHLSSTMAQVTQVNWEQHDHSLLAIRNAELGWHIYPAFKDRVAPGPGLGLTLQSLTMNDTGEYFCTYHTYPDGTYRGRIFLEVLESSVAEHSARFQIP

| Binder | binding result [1] | EC50 [2] | IC50 [3] [nM] | EC50 [4] [nM] | EC50 [5] [nM] | EC50 [6] [mg/L] | EC50 [7] [mg/L] | Kd [8] [nM] | koff [8] [s⁻¹] | kon [8] [M⁻¹ s⁻¹] | Kd [9] [nM] | koff [9] [s⁻¹] | kon [9] [M⁻¹ s⁻¹] | IC50 [10] [nM] | IC50 [11] [mg/L] | EC50 [12] [mg/L] |
| --- | --- | --- | --- | --- | --- | --- | --- | --- | --- | --- | --- | --- | --- | --- | --- | --- |
| anti-human TIGIT mouse monoclonal antibody 7103-06 (antibody, V domains shown, often printed as 7105-06; also called 7105-06; 47A2-1-2) VH: EEQLVESGGGLVKPGGTLKLSCAASGFTFSTYAMSWVRQSPEKRLEWVAEISSGGSYTYYSDTVTGRFTISRDNAKNTLYLEMSSLRSEDTAMYYCARKTLDYYALDYWGHGTSVTVSS VL: DVQITQSPSYLAASPGETITINCRANKTISKYLAWYQEKPGKTNKLLIYSGSRLQSGIPSKFSGSGYGTDFTLTISSLEPEDFAMYYCQQHNEYPWTFGGGTKLEIK | no binding | 0.256 nM | 0.0607 | 0.0393 | 0.174 | 0.026 | – | – | – | – | – | – | – | – | – | – |
| anti-human TIGIT human mouse chimeric monoclonal antibody 7103-07 (hFc) (antibody, V domains shown, also called 7303-07 (hFc); human mouse chimeric antibody) VH: EVQVVESGGGLVKPGGTLKLSCAASGFTFSTYAMSWVRQSPEQRLEWVAEISSGGSHTFYSDTVTGRFTISRDNAQNTLYLEMNSLRSEDTAMYYCARKTLDYYALDYWGQGTSVTVSS VL: DVQITQSPSYLAASPGETITINCRASKSISKYLAWYQEKPGKTNKLLIYSGSRLQSGIPSKFSGSGYGTDFTLTISSLEPEDFAMYYCQQHNEYPWTFGGGTKVEIK | – | 1.35 nM and 0.927 nM | – | – | – | – | 0.0095 | 1.72 | 0.00167 | 971000 | 2.96 | 0.00169 | 573000 | 1.7 | 0.041 | – |
| anti-human TIGIT mouse monoclonal antibody 7103-07 (antibody, V domains shown, also called 42C12-1-2) VH: EVQVVESGGGLVKPGGTLKLSCAASGFTFSTYAMSWVRQSPEQRLEWVAEISSGGSHTFYSDTVTGRFTISRDNAQNTLYLEMNSLRSEDTAMYYCARKTLDYYALDYWGQGTSVTVSS VL: DVQITQSPSYLAASPGETITINCRASKSISKYLAWYQEKPGKTNKLLIYSGSRLQSGIPSKFSGSGYGTDFTLTISSLEPEDFAMYYCQQHNEYPWTFGGGTKVEIK | no binding | 0.226 nM | 0.159 | 0.075 | 0.704 | 0.106 | – | – | – | – | – | – | – | – | – | – |
| Tiragolumab (antibody, V domains shown) VH: EVQLQQSGPGLVKPSQTLSLTCAISGDSVSSNSAAWNWIRQSPSRGLEWLGKTYYRFKWYSDYAVSVKGRITINPDTSKNQFSLQLNSVTPEDTAVFYCTRESTTYDLLAGPFDYWGQGTLVTVSS VL: not shown | – | 1.36 nM and 3.84 nM and 1.72 nM | – | – | – | – | 0.0242 | – | – | – | – | – | – | 5.24 | 0.116 | 0.0806 |

More lines, now with the values ahead:

| binding result [1] | EC50 [2] | IC50 [3] [nM] | EC50 [4] [nM] | EC50 [5] [nM] | EC50 [6] [mg/L] | EC50 [7] [mg/L] | Kd [8] [nM] | koff [8] [s⁻¹] | kon [8] [M⁻¹ s⁻¹] | Kd [9] [nM] | koff [9] [s⁻¹] | kon [9] [M⁻¹ s⁻¹] | IC50 [10] [nM] | IC50 [11] [mg/L] | EC50 [12] [mg/L] | Binder |
| --- | --- | --- | --- | --- | --- | --- | --- | --- | --- | --- | --- | --- | --- | --- | --- | --- |
| no binding | 0.499 nM | 0.178 | 0.0647 | 1.07 | 0.16 | – | – | – | – | – | – | – | – | – | – | anti-human TIGIT mouse monoclonal antibody 7103-01 (antibody, V domains shown, also called 31E10-2-1) VH: QVQLQQPGAELVKPGASVKLSCKASGYTFISYNIYWVKQRPGQGLEWIGGVNPSNGNTNFNENFKSKATLTVDKSSSTAYMQLSSLTSDDSAVYFCTRGNYYGYEFAYWGQGTLVTVSA VL: DIVMTQSHKFMSTSVGDRVSITCKASQHVSTAVAWYQQKPGQSPKLLIYSPSYRYTGVPDRFTGSGSGTDFTFTISSVQAEDLAVYYCQQHYSTPWTFGGGTKLEIK |
| no binding | 0.44 nM | 0.183 | 0.0727 | 0.334 | 0.05 | – | – | – | – | – | – | – | – | – | – | anti-human TIGIT mouse monoclonal antibody 7103-04 (antibody, V domains shown, also called 40E6-2-2) VH: VQLQESGAELVKPGASVKLSCRASGYTFTDYFVYWVKQRPGQGLEWIGGINPSNGGATFNEKFKNKATLTVDTSSSTAYMQLSSLTSEDSAIYYCTRGNFYGYEFAYWGQGTLVTVSA VL: DIVMTQSHKFISTSVGDRVSITCKASQHVSTAVVWYQQKPGQSPKLLIYSPSYRYTGVPDRFTGSGSGTDFTFTISSVQAEDLAVYYCQQHYITPWTFGGGTKLEIK |
| no binding | 0.347 nM | 0.141 | 0.0674 | 0.398 | 0.06 | – | – | – | – | – | – | – | – | – | – | anti-human TIGIT mouse monoclonal antibody 7103-03 (antibody, V domains shown, also called 36H8-2-2) VH: EVQLQQSGPELVKPGASVKISCKTSGYTFTEYTMHWVKQSHGKSLEWIGGINPNNGGTSYNQKFKGKATLTVDKSSSTAYMELRSLTSEDSAVYYCARGAYYRYDFDYWGQGTTLTVSS VL: DIVMTQSHKFMSTSVGDRVSITCKASQDVRTAVVWYQQKPGQSPKLLIYSASYRYTGVPDRFTGSGSGTDFTFTISSVQAEDLAVYYCQQHYSTPWTFGGGTKLEIK |

Reference: patent US20240417462A1 (SHANGHAI CELGEN BIO PHARMACEUTICAL, published 2024)
